From article PMC4980704

Biological target: VEGF165 (human, UniProt P15692-4 27-191)
Experiment: MST

**Q.** For TGTGGGGGTGGACGGGCCGGGTAGA (structured_DNA) [V7t1 (3'-Cy3)], which Kd is on record?
**A.** The Kd was 75.9 ± 13 nM.
